Non-standard residues stand in square brackets, D forms with d. No end group written: not given here. Hyp = O=C(O)[C@@H]1C[C@@H](O)CN1
How the values were obtained:
[1] = Remaining thiol group (Ellman's reagent) in oxidative polymerization reaction; assay type: physicochemical; conditions: 10% DMSO, peptide 1% (w/v)
Experimental: Degassed water was used to prepare a peptide solution having a concentration of 1.11% (w/v), and the solution was then put into a PCR tube. After heating this solution at 80° C. for 5 min, it was then left to sand still at 4° C. overnight. By adding DMSO to this solution, there was prepared a peptide solution having a final concentration of 10% DMSO, peptide 1% (w/v). The PCR tube was then filled with a mineral oil in a way such that the mineral oil covered the surface of the solution. In every measurement, the mineral oil was eliminated from the peptide solution to prepare a peptide solution for oxidation monitoring. Ellman's reagent was prepared in a way such that 9 mg/ml of DTNB was present in 50 mM of a phosphate buffer solution (pH 8.4). 33 mM phosphate buffer solution (pH 8.4) and Ellman's reagent 1.5 mg/ml were left to stand for […], then a light absorbance was then measured after a solution with a final concentration of peptide 0.167 mg/ml. Recorded were changes in absorbance with time, with a moment when DMSO was added being a starting point (0 hour). Since the Ellman's reagent generates 5-mercapto-2-nitrobenzoate (λ max=412 nm, ε=1.55×10^4) depending on the amount of thiol groups (referred to as “SH groups” hereunder) in the peptide, measured was a absorbance at 412 nm. After the measurement, optical path length was compensated by measuring absorbance at 997 nm and 900 nm.

[2] = Hydrogel formation judged by holding of a stainless ball; assay type: physicochemical; set-up: key to gel formation, Time (hour) 9 / gel formation, Time (hour) 12 / gel formation, Time (hour) 15 / gel formation, Time (hour) 24 / gel formation, Time (hour) 32 / gel formation, Time (hour) 74 / gel formation, Peptide concentration 0.1% (w/v) / gel formation, Peptide concentration 0.2% (w/v) / gel formation, Peptide concentration 0.3% (w/v) / gel formation, Peptide concentration 0.5% (w/v) / gel formation, Peptide concentration 0.7% (w/v) / gel formation, Peptide concentration 1.0% (w/v): ◯: Gelated; X: Failed to gelate; conditions: for gel-forming capability / gel formation, Time (hour) 9 / gel formation, Time (hour) 12 / gel formation, Time (hour) 15 / gel formation, Time (hour) 24 / gel formation, Time (hour) 32 / gel formation, Time (hour) 74: 1% (w/v) peptide; for gel-forming capability: 10% DMSO, up to three days; for gel formation, Time (hour) 9: 9 hour; for gel formation, Time (hour) 12: 12 hour; for gel formation, Time (hour) 15: 15 hour; for gel formation, Time (hour) 24: 24 hour; for gel formation, Time (hour) 32: 32 hour; for gel formation, Time (hour) 74: 74 hour
Experimental: Degassed water was used to prepare a peptide solution having a concentration of 1.11% (w/v) or 1.66% (w/v), and the solution was then put into a PCR tube. After heating this solution at 80° C. for 5 min using a polymerase chain reaction (PCR) machine (TaKaRa PCR Thermal Cycler, TAKARA BIO INC.), the solution was then left to stand at 4° C. overnight. By adding DMSO and water to this solution, there was prepared a peptide solution having a concentration of 10% DMSO, 0.1 to 1.5% (w/v). The PCR tube was then filled with a mineral oil in a way such that the mineral oil covered the liquid surface, followed by allowing the solution to stand at room temperature for a given period of time to achieve a gel. Then, gel formation was determined by looking at whether a stainless ball could be held by the gel.

[3] = Hydrogel stability to reduction treatment (DTT) or water with pipetting; assay type: physicochemical; conditions: water added instead of reducing solution; pipetting about 90 times/min
Experimental: There, verification was made on whether gel caused a collapse by breaking the disulfide cross-linking by a reduction treatment. A reducing solution of 100 μl (100 mM DTT, 50 mM phosphate buffer solution (pH 8.4)) or water was added to the hydrogel (30 μl) prepared. […] Then, pipetting procedure was respectively performed at a frequency of about 90 times/min and a volume of 100 μl/each time, using a yellow tip (up to 200 μl).

MDA-MB-231 = test: Cell adhesion assay on coated 96-well plate, MDA-MB-231; assay type: cell-based, Human; conditions: mixed polymerized peptide of YCC2 and YCC2-GFOGER; MDA-MB-231, 180 min
Experimental: D-MEM High Glucose, D-MEM Low Glucose and 0.5% trypsin/EDTA were purchased from Wako Pure Chemical Industries, Ltd. (Osaka); FBS, penicillin. streptomycin (100×) were purchased from Invitrogen (Thermo Fisher Scientific corporation). Human mammary gland cancer (MDA-MB-231) was purchased from ATCC; Human skin fibroblasts (HDF) were purchased from Cell Applications. MDA-MB-231 was cultured using DMEM High Glucose (10% FBS, 100 Units/ml penicillin, 100 μg/ml streptomycin), and then maintained; and HDF was cultured using DMEM Low Glucose (10% FBS, 100 Units/ml penicillin, 100 μg/ml streptomycin), and then maintained. When used in cell adhesion assay and Western blotting, the cells were treated with 0.05% trypsin/EDTA, and then collected in a 15 ml tube to be subjected to centrifugal treatment at 1,200 rpm for four minutes. After the removal of the supernatant, the cells were suspended with an incubation medium by which the cells were incubated at 37° C. for 20 to 30 min and then recovered. Such cell suspension was used for cell adhesion assay and Western blotting.
Type I collagen (KOKEN CO., LTD, Tokyo) and BSA (Jackson Immuno Research Laboratories Inc., USA), in an aqueous solution as 30 μg/ml, were added to a 96-well plate (Nunc MicroWell 96-Well Microplates) by an amount of 50 μl/well, followed by drying the sample for two nights. Collagen-like peptides having no Cys residue were prepared as aqueous solutions of 1 to 3 mg/ml, and then heated at 95° C. for 5 min, followed by storing them at 4° C. overnight to form the triple-helical structure. Then, they were diluted to 30 μg/ml, and then added to a 96-well plate in an amount of 50 μl/well followed by drying them for two nights. Collagen-like peptides having Cys residues were dissolved in a degassed 0.05% (v/v) TFA aqueous solution, followed by preparing to a concentration of 300 μg/ml, and then heating the sample at 80° C. for 5 min. […] Further, a mineral oil was layered on the peptide solution, and such peptide solution was then oxidized at room temperature until thiol could no longer be detected by Ellman's test. […]

[4] = oxidizing conditions: room temperature, three days

Substance	ratio of SH amount ([1]; SH amount at 0 hour being 100%, 74 hours)	gel-forming capability ([2]; room temperature)	time in which peptide turned into a gel [1] [h]	gel formation, Time (hour) 9 [2]	gel formation, Time (hour) 12 [2]	gel formation, Time (hour) 15 [2]	gel formation, Time (hour) 24 [2]	gel formation, Time (hour) 32 [2]	gel formation, Time (hour) 74 [2]	gel formation, Peptide concentration 0.3% (w/v) [2, 4]	gel formation, Peptide concentration 0.5% (w/v) [2, 4]	gel formation, Peptide concentration 0.7% (w/v) [2, 4]	gel formation, Peptide concentration 1.0% (w/v) [2, 4]	gel collapse on adding water [3]	gel formation, Peptide concentration 0.1% (w/v) ([2]; oxidizing conditions: room temperature, three days, 0.1% (w/v))	gel formation, Peptide concentration 0.2% (w/v) ([2]; oxidizing conditions: room temperature, three days, 0.2% (w/v))	concentration at which peptide still turned into a gel ([2]; room temperature, three days)	content of YCC2-GFOGER giving the same level of cell adhesion capability as collagen (MDA-MB-231) [%]
(POG)6PRG(POG)5CC (PPGPPGPPGPPGPPGPPGPRGPPGPPGPPGPPGPPGCC; not fully specified; hydroxyproline; MOD_RES (2)..(2) 4-Hydroxyproline; MOD_RES (5)..(5) 4-Hydroxyproline; MOD_RES (8)..(8) 4-Hydroxyproline; MOD_RES (11)..(11) 4-Hydroxyproline; MOD_RES (14)..(14) 4-Hydroxyproline; MOD_RES (17)..(17) 4-Hydroxyproline; MOD_RES (23)..(23) 4-Hydroxyproline; MOD_RES (26)..(26) 4-Hydroxyproline; MOD_RES (29)..(29) 4-Hydroxyproline; MOD_RES (32)..(32) 4-Hydroxyproline; MOD_RES (35)..(35) 4-Hydroxyproline) [CC1]	approximately 0%	did not turn into a gel	–	–	–	–	–	–	–	–	–	–	–	–	–	–	–	–
CCC(POG)6PRG(POG)5CCC (CCCPPGPPGPPGPPGPPGPPGPRGPPGPPGPPGPPGPPGCCC; not fully specified; hydroxyproline; MOD_RES (5)..(5) 4-Hydroxyproline; MOD_RES (8)..(8) 4-Hydroxyproline; MOD_RES (11)..(11) 4-Hydroxyproline; MOD_RES (14)..(14) 4-Hydroxyproline; MOD_RES (17)..(17) 4-Hydroxyproline; MOD_RES (20)..(20) 4-Hydroxyproline; MOD_RES (26)..(26) 4-Hydroxyproline; MOD_RES (29)..(29) 4-Hydroxyproline; MOD_RES (32)..(32) 4-Hydroxyproline; MOD_RES (35)..(35) 4-Hydroxyproline; MOD_RES (38)..(38) 4-Hydroxyprolin) [CCC2]	–	capable of turning into gels	24	X	X	X	◯	◯	◯	X	◯	◯	◯	gel collapse was not observed	–	–	–	–
CCCC(POG)6PRG(POG)5CCGC [CCCC2]	–	capable of turning into gels	12	X	◯	◯	◯	◯	◯	◯	◯	◯	◯	gel collapse was not observed	X	X	0.3 % (w/v)	–
YCC(POG)5FOGERG(POG)5CCY (YCCP[Hyp]GP[Hyp]GP[Hyp]GP[Hyp]GP[Hyp]GF[Hyp]GERGP[Hyp]GP[Hyp]GP[Hyp]GP[Hyp]GP[Hyp]GCCY; not fully specified; cysteine pairing not given here) [YCC2-GFOGER]	–	–	–	–	–	–	–	–	–	–	–	–	–	–	–	–	–	30
YCC(POG)6PRG(POG)5CCY (YCCPPGPPGPPGPPGPPGPPGPRGPPGPPGPPGPPGPPGCCY; not fully specified; hydroxyproline; MOD_RES (5)..(5) 4-Hydroxyproline; MOD_RES (8)..(8) 4-Hydroxyproline; MOD_RES (11)..(11) 4-Hydroxyproline; MOD_RES (14)..(14) 4-Hydroxyproline; MOD_RES (17)..(17) 4-Hydroxyproline; MOD_RES (20)..(20) 4-Hydroxyproline; MOD_RES (26)..(26) 4-Hydroxyproline; MOD_RES (29)..(29) 4-Hydroxyproline; MOD_RES (32)..(32) 4-Hydroxyproline; MOD_RES (35)..(35) 4-Hydroxyproline; MOD_RES (38)..(38) 4-Hydroxyprolin) [YCC2]	–	capable of turning into gels	74	X	X	X	X	X	◯	X	X	X	◯	gel collapse was observed	–	–	–	–

— patent US10851152B2, “Polymerized peptide and gel having collagen-like structure” (WASEDA UNIVERSITY, priority 2015, dated 2020)
